According to patent publication US20030166587:
Changes are numbered by the printed parent chain.

T1: IKK-phosphorylated IκBα in the IκBα/NF-κB complex
T1 chain: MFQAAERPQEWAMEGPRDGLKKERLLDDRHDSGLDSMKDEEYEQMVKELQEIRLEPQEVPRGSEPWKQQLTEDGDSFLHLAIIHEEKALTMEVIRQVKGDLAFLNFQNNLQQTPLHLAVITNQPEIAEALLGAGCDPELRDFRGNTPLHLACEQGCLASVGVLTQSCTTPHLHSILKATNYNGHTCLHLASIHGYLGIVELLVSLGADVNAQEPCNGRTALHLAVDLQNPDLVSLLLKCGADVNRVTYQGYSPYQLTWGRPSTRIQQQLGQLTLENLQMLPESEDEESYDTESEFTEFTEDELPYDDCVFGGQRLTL

B1: human β-TrCP with a deletion of the F box region residues 122-168, FLAG-tagged (protein)
chain: MDPAEAVLQEKALKFMNSSEREDCNNGEPPRKIIPEKNSLRQTYNSCARLCLNQETVCLASTAMKTENCVAKTKLANGTSSMIVPKQRKLSASYEKEKELCVKYFEQWSESDQVEFVEHLISQMCHYQHGHINSYLKPMLQRDFITERMVRTDSLWRGLAERRGWGQYLFKNKPPDGNAPPNSFYRALYPKIIQDIETIESNWRCGRHSLQRIHCRSETSKGVYCLQYDDQKIVSGLRDNTIKIWDKNTLECKRILTGHTGSVLCLQYDERVIITGSSDSTVRVWDVNTGEMLNTLIHHCEAVLHLRFNNGMMVTCSKDRSIAVWDMASPTDITLRRVLVGHRAAVNVVDFDDKYIVSASGDRTIKVWNTSTCEFVRTLNGHKRGIACLQYRDRLVVSGSSDNTIRLWDIECGACLRVLEGHEELVRCIRFDNKRIVSGAYDGKIKVWDLVAALDPRAPAGTLCLRTLVEHSGRVFRLQFDEFQIVSSSHDDTILIWDFLNDPAAQAEPPRSPSRTYTYISR
B2: human β-TrCP, FLAG-tagged (protein)
chain: MDPAEAVLQEKALKFMNSSEREDCNNGEPPRKIIPEKNSLRQTYNSCARLCLNQETVCLASTAMKTENCVAKTKLANGTSSMIVPKQRKLSASYEKEKELCVKYFEQWSESDQVEFVEHLISQMCHYQHGHINSYLKPMLQRDFITALPARGLDHIAENILSYLDAKSLCAAELVCKEWYRVTSDGMLWKKLIERMVRTDSLWRGLAERRGWGQYLFKNKPPDGNAPPNSFYRALYPKIIQDIETIESNWRCGRHSLQRIHCRSETSKGVYCLQYDDQKIVSGLRDNTIKIWDKNTLECKRILTGHTGSVLCLQYDERVIITGSSDSTVRVWDVNTGEMLNTLIHHCEAVLHLRFNNGMMVTCSKDRSIAVWDMASPTDITLRRVLVGHRAAVNVVDFDDKYIVSASGDRTIKVWNTSTCEFVRTLNGHKRGIACLQYRDRLVVSGSSDNTIRLWDIECGACLRVLEGHEELVRCIRFDNKRIVSGAYDGKIKVWDLVAALDPRAPAGTLCLRTLVEHSGRVFRLQFDEFQIVSSSHDDTILIWDFLNDPAAQAEPPRSPSRTYTYISR
B3: mouse β-TrCP, FLAG-tagged (protein)
chain: B2 chain with L52I, A60T, T73A, G224E, N295S, T336A, V498M, Q553H

Biological target: T1, IKK-phosphorylated IκBα in the …

Protein	in vitro ubiquitination of pIκBα in the presence of E1 and E2 (UBC5C)
B1	failed to promote ubiquitination (lanes 7 and 8), in spite of its binding capacity
B2	the wild type β-TrCP proteins facilitated the ubiquitination of pIκBα, but not of the non-phosphorylated IκBα
B3	the wild type β-TrCP proteins facilitated the ubiquitination of pIκBα, but not of the non-phosphorylated IκBα
